Assay results reported in PMC8037807, “The Effect of Oxidized Dopamine on the Structure and Molecular Chaperone Function of the Small Heat-Shock Proteins, αB-Crystallin and Hsp27” (International Journal of Molecular Sciences, 2021).

What was measured:
[1] = molecular target: the molecule itself; assay: cross-linking; 15 μM αBc or Hsp27 incubated with 15 or 75 μM DA in 50 mM phosphate, 150 mM NaCl, pH 7.4, 24 h, 37 °C, aerobic; excess DAox removed (10 kDa filter); SDS-PAGE with DTT and boiling
[2] = molecular target: the molecule itself; assay: negative-stain transmission electron microscopy; 30 μM αBc or Hsp27 incubated with 0 or 150 μM DAox; particle diameters measured
[3] = molecular target: the molecule itself; assay: cross-linking; lysine-dimethylated and non-methylated sHsps reacted with a 0, 1, 5, 7.5, 10 or 20 molar excess of DA, 37 °C, 24 h, 50 mM phosphate buffer, pH 7.4; SDS-PAGE, monomer band quantified

B1: oxidized dopamine-modified αB-crystallin (natural protein, human, UniProt P02511 1-175, looked up)
chain: MDIAIHHPWIRRPFFPFHSPSRLFDQFFGEHLLESDLFPTSTSLSPFYLRPPSFLRAPSWFDTGLSEMRLEKDRFSVNLDVKHFSPEELKVKVLGDVIEVHGKHEERQDEHGFISREFHRKYRIPADVDPLTITSSLSSDGVLTVNGPRKQVSGPERTIPITREEKPAVTAAPKK
modifications: modified and covalently cross-linked by oxidized dopamine (DAox); lysine residues involved in the cross-links; sites not mapped
notes: αB-crystallin (HspB5), human small heat-shock protein; monomeric subunit mass 20.2 kDa; same protein as m1; Made at several molar ratios of αBc to DA (1:1, 1:5, 1:10, 1:20, 1:30); All ratios are kept as one molecule; the ratio is named in each row; also called αBc:DAox; DAox-modified αBc
**Q.** Does B1 bind [1]?
**A.** Result: binds

B2: αB-crystallin (natural protein, human, UniProt P02511 1-175, looked up)
chain: B1 chain
notes: αB-crystallin (HspB5), human small heat-shock protein; monomeric subunit mass 20.2 kDa; Lys174 and Lys175 at the extreme C-terminus; Heterogeneous large oligomer in solution; also called HspB5; native αBc; source: expressed and purified as previously described [9,40,41]
**Q.** Does B2 bind [2]?
**A.** Result: binds

B3: methylated αBc reacted with DAox (natural protein, human, UniProt P02511 1-175, looked up)
chain: B1 chain
modifications: dimethylation of all lysine residues (and the amino terminus), confirmed by mass spectrometry; then modified by oxidized dopamine (DAox)
notes: αB-crystallin (HspB5), human small heat-shock protein; same protein as m1; Reacted with a 0, 1, 5, 7.5, 10 or 20 molar excess of DA; also called lysine-dimethylated αBc
**Q.** Does B3 bind [3]?
**A.** Result: binds
